The series relates to p53.

Take GST-COP1: the “in vitro ubiquitination of p53 (immunoblot of ubiquitinated species of p53)” value is “Only with all of the reaction components and p53 present was COP1 able to directly ubiquitinate p53”.

These data come from patent US20080009458.
